Source: publication PMC8807876

Target: TopBP1 (UniProt Q92547)
Test: anti-GFP nanobody IP, TopBP1 immunoblot
Details: reference: wild type; sites T969,S1001

Treslin/TICRR (from UniProt Q7Z2Z1) 2PM (T969A/S1001A)
binding against the reference: lost
